Results published in patent US20130149306A1, “Antagonists of Sema3E/PlexinD1 interaction as anti-cancer agents” (NETRIS PHARMA, priority 2010, published 2013).

Key:
[1] = test system: HEK 293T cells transfected with hPlexinD1; test: PlexinD1-induced cell death of transfected HEK 293T cells; type: cell-based, human; conditions: for Effect of caspase inhibitor on the death effect of PlexinD1: 10 μM, trypan blue exclusion, cleaved Caspase-3 positive cells; for Effect of co-transfected semaphorin vector on PlexinD1-induced cell death: co-transfection with hPlexinD1
Description: FIGS. 28-29: HEK 293T cells transfected with an expression control vector or hPlexinD1 were cultured in absence or presence of different caspase inhibitors at 10 μM (caspase-3 (z-DEVD-fmk) and capspase-9 (z-LEHD-fmk), caspase-8 (z-IETD-fmk)). Cell death was measured by trypan blue exclusion-assay (28) or by quantification of the percentage of cleaved Caspase-3 positive cells (29). Activation of caspase-9 and caspase-3 is required for PlexinD1-mediated cell death.
FIG. 30: HEK 293T cells transfected with expression vectors for hPlexinD1, hPlexinD1-RA or a control vector were cultured in the absence or presence of different concentration of Sema3E (10 to 100 ng/ml).
FIG. 31: HEK 293T cells transfected with an expression vector for hPlexinD1 together with expression vector coding for Sema3E, Sema3C or a soluble form of Sema4A.
(§1) Cell death/viability was determined by trypan blue dye exclusion, MTT cell viability assay, calcein assay, and anti-active caspase-3 immunoreactivity. In some experiments, cells were seeded in multiple 24-well plates (5×10^4 cells/well) for 24 h then transfected with different vectors using Lipofectamine Plus (Invitrogen): The different analysis occurred after 48 h (HEK-293T cells) or 72 h (4T1 cells) of serum starvation. In some experiments, cells were cultured in the presence of 10 μM caspase inhibitors: caspase-3 inhibitor II (Z-DEVD-FMK, 264155, VWR), caspase-8 inhibitor II (Z-IETD-FMK, 218759, VWR), and caspase-9 inhibitor II ([…], 218776, VWR).
(§2) For trypan blue exclusion experiments, total cells (adherent and floating) were collected by mechanical detachment and medium collection. Cells were pelleted by slow centrifugation and resuspended in serum-free medium. Trypan blue (0.4%) was added in a ratio of 1:1 to the cell suspension, and the percentage of cell death was measured in a hemacytometer by counting, in a blinded fashion and within a given volume, the number of blue (dead) cells and comparing this number to the total number of cells in this same volume.
(§3) For caspase staining, after immunostaining with anti-active caspase-3 antibody, the percentage of labelled cells was estimated by comparing the number of active caspase-3-stained cells with the total number of cells present on a given surface.

[2] = biological target: PlexinD1-IC D1471N/D1624N (UniProt Q9Y4D7)
[3] = biological target: T1, in vitro translated intracellular domain of PlexinD1 (hPlexinD1 aa 1293 to 1925) (UniProt Q9Y4D7)
T1 sequence: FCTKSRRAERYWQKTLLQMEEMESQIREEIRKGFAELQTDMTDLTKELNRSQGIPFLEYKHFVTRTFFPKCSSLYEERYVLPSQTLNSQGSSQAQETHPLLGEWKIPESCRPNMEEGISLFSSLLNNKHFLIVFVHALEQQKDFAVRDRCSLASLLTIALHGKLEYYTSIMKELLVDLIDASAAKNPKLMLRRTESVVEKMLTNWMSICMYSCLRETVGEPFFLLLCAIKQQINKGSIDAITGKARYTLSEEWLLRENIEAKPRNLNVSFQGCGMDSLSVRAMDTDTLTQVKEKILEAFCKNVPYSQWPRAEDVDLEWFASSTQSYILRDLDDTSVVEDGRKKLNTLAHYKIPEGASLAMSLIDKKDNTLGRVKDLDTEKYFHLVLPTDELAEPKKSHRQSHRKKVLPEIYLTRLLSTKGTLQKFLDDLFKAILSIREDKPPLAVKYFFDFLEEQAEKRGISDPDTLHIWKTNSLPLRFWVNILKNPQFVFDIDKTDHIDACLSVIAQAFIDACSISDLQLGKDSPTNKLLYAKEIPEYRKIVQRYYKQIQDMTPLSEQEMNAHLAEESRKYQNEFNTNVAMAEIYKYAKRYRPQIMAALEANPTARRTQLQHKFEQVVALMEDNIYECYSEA

4T1 cells = test: Cell death/viability in cultures of 4T1 cells; type: cell-based, mouse
Description: as §1, §2, §3
For assessing cell viability using calcein, cells were plated in OptiMEM medium in 96-well black plates (Greiner Bio-one, Courtaboeuf, France). After 3-6 days in culture, live cells were stained with 0.5 μg/ml green calcein-acetoxymethyl ester (Molecular Probes, Eugene, Oreg.) for 40 minutes at 37° C., and counted using a flash cytometer (Trophos, Marseille, France).
We next used an in vitro assay to evaluate whether SD1 is directly capable of triggering death of tumor cells. […] Similarly, 4T1-SD1 cells, which proliferate at the same rate as 4T1-mock cells during the first 24-48 h in culture, show increased death 72 h after plating, possibly as a result of SD1 accumulation in the culture medium (FIG. 14). […] Thus, SD1 triggers cancer cell death in a PlexinD1 dependent manner.

[4] = biological target: T2, Sema3E (as printed in the displacement assay and as 'exogenous Sema3E' or Sema3E expression vector in the … (Mus musculus (Mouse), UniProt P70275 26-775)); test: displacement of Sema3E binding to PlexinD1-expressing HEK293T cells by SD1 in conditioned medium (1-12 nM)
T2 construct: The methods describe production of mouse AP-Sema3E, which may be the one used in the displacement assay; also called Sema3E ligand; not shown: Alkaline phosphatase (AP) fusion partner, and a His tag if the AP-Sema3E-his construct was used
T2 sequence: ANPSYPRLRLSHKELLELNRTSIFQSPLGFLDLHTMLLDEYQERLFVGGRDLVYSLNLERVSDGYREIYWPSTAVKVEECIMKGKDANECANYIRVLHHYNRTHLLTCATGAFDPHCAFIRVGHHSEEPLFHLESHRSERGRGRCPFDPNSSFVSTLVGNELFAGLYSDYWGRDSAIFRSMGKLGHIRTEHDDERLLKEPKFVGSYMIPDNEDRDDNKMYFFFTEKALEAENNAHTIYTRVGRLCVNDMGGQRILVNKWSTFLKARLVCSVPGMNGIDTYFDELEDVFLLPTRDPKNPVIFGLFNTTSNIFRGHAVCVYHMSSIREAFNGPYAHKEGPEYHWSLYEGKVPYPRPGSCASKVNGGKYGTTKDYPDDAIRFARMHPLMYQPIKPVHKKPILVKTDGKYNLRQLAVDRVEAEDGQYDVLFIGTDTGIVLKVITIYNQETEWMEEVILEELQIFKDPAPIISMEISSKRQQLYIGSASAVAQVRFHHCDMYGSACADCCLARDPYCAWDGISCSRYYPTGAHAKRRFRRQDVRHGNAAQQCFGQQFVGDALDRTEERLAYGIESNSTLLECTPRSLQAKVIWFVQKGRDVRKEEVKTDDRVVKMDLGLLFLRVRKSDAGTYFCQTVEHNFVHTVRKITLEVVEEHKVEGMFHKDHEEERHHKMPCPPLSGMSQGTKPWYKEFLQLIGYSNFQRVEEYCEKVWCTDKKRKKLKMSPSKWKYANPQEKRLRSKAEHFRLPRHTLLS

## z-LEHD-fmk [reference compound]
[1]
  Effect of caspase inhibitor on the death effect of PlexinD1: blocked

## purified active caspase-3
[2]
  in vitro cleavage by active caspase-3 (autoradiography): Mutation of both aspartic acid residues to asparagine (N) within the intracellular domain of PlexinD1 completely suppressed caspase-3 cleavage
[3]
  in vitro cleavage by active caspase-3 (autoradiography): the intracellular domain of PlexinD1 is cleaved by caspase-3, resulting in five protein products that migrate at apparent molecular weight of 16, 24, 30, 37 and 50 kDa

## z-DEVD-fmk [reference compound]
[1]
  Effect of caspase inhibitor on the death effect of PlexinD1: blocked

## z-IETD-fmk [reference compound]
[1]
  Effect of caspase inhibitor on the death effect of PlexinD1: not

## shRNA1: small hairpin RNA targeting mouse Sema3E, SEQ ID NO: 26 (CCGGGCTGCTGAAAGTAATCACAATCTCGAGATTGTGATTACTTTCAGCAGCTTTTTG) [reference compound]
4T1 cells; transfection with shRNA to mouse Sema3E
  Death of 4T1 cells on knockdown of Sema3E: induced death

B1: SD1 (sema domain of mouse PlexinD1, aa 61 to 531, fused in frame with six myc epitope tags) (receptor, UniProt Q3UH93 61-531, looked up, not shown: small tags and cut ends)
chain: TNNFALDGTAGTVYLAAVNRLYQLSSANLSLEAEATVGPVPDSPLCHAPQLPQASCEHPRRLTDNYNKILQLDPGQGLVVACGSIYQGLCQLRRRGNISALAVSFPPAAPTAEPVTVFPSMLNVAANHPNASTVGLVLPPTSGTGGSRLLVGATYTGFGSAFFPRNRSLEDHRFENTPEIAIRSLDARGDLAKLFTFDLNPSDDNILKIKQGAKEQHKLGFVRAFLHPAVPPHSAQPYAYLALNSEARAGDKDSQARSLLARICLPRGAGGDAKKLTESYIQLGLQCAGGAGRGDLYSRLVSVFPAREQFFAVFERPQGAPGARNAPAALCAFRFDDVQAAIRAARTACFVEPAPDVVAVLDSVVQGTGPACESKRNIQLQPEQLDCGAAHLQHPLTILQPLRASPVFRAPGLTAVAVASANNYTAVFLGTATGRLLKISLNESMQVVSRRVLTVAYGEPVHHVMQFDPMD
notes: range 61-531; The construct starts with the Ig k-chain secretion signal peptide, left out here as it is a secretion signal; also called SD1 polypeptide; myc-tagged SD1
[4]
  IC50: 5.05 nM

B2: Sema3E: secreted Semaphorin 3E, ligand of PlexinD1; added as exogenous protein or co-transfected vector (protein)
chain: T2 sequence
4T1 cells; exogenous Sema3E 100 ng/ml
  Effect of exogenous Sema3E on SD1-induced death: sufficient to rescue cells from death
4T1 cells; exogenous Sema3E 100 ng/ml, shRNA1
  Effect of exogenous Sema3E on death induced by Sema3E knockdown: reversed
[1]; Sema3E 10 to 100 ng/ml
  Effect of exogenous ligand on PlexinD1-triggered cell death: inhibited in a dose dependent manner
[1]
  Effect of co-transfected semaphorin vector on PlexinD1-induced cell death: saved from cell death

B3: Sema3C: class 3 semaphorin which does not directly bind to PlexinD1; expressed from vector (protein, UniProt Q99985 21-751, looked up)
Semaphorin-3C: GSSQPQARVYLTFDELRETKTSEYFSLSHHPLDYRILLMDEDQDRIYVGSKDHILSLNINNISQEALSVFWPASTIKVEECKMAGKDPTHGCGNFVRVIQTFNRTHLYVCGSGAFSPVCTYLNRGRRSEDQVFMIDSKCESGKGRCSFNPNVNTVSVMINEELFSGMYIDFMGTDAAIFRSLTKRNAVRTDQHNSKWLSEPMFVDAHVIPDGTDPNDAKVYFFFKEKLTDNNRSTKQIHSMIARICPNDTGGLRSLVNKWTTFLKARLVCSVTDEDGPETHFDELEDVFLLETDNPRTTLVYGIFTTSSSVFKGSAVCVYHLSDIQTVFNGPFAHKEGPNHQLISYQGRIPYPRPGTCPGGAFTPNMRTTKEFPDDVVTFIRNHPLMYNSIYPIHKRPLIVRIGTDYKYTKIAVDRVNAADGRYHVLFLGTDRGTVQKVVVLPTNNSVSGELILEELEVFKNHAPITTMKISSKKQQLYVSSNEGVSQVSLHRCHIYGTACADCCLARDPYCAWDGHSCSRFYPTGKRRSRRQDVRHGNPLTQCRGFNLKAYRNAAEIVQYGVKNNTTFLECAPKSPQASIKWLLQKDKDRRKEVKLNERIIATSQGLLIRSVQGSDQGLYHCIATENSFKQTIAKINFKVLDSEMVAVVTDKWSPWTWASSVRALPFHPKDIMGAFSHSEMQMINQYCKDTRQQHQQGDESQKMRGDYGKLKALINSRKSRNRRNQLPES
[1]
  Effect of co-transfected semaphorin vector on PlexinD1-induced cell death: no change
